Assays:
Test in all cases: cell-based or functional assay
[1] = target: T1, ADAMTS4 (human, UniProt O75173 213-685, limits assumed)
T1 sequence (looked up): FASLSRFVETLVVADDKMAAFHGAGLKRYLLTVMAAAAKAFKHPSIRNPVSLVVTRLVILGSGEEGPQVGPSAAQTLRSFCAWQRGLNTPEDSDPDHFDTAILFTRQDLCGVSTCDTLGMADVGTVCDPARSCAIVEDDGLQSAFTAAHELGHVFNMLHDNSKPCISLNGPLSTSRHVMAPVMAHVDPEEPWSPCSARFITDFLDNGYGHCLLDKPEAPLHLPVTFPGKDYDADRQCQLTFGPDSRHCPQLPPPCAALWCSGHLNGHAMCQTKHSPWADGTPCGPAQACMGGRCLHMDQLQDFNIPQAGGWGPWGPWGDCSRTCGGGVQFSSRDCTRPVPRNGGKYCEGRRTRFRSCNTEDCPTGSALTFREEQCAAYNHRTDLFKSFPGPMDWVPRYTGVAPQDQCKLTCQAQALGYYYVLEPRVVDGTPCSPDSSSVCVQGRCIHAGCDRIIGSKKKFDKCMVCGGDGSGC

[2] = target: T2, ADAMTS5 (human, UniProt Q9UNA0 262-622, limits assumed)
T2 sequence (looked up): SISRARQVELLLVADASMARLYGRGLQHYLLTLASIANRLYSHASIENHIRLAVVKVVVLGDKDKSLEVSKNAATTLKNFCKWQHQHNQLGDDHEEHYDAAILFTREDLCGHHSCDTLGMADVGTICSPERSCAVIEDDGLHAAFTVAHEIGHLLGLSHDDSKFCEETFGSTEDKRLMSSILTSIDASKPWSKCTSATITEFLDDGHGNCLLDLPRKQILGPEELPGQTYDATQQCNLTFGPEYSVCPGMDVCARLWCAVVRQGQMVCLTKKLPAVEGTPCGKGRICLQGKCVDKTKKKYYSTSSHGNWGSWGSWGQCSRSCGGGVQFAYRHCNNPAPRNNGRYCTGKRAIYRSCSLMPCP

[3] = target: MMP13 (human, UniProt P45452 104-471, limits assumed)

B1: Variant A2M, bait region SEQ ID NO 98 (other)
chain: SVSGKPQYMVLVPSLLHTETTEKGCVLLSYLNETVTVSASLESVRGNRSLFTDLEAENDVLHCVAFAVPKSSSNEEVMFLTVQVKGPTQEFKKRTTVMVKNEDSLVFVQTDKSIYKPGQTVKFRVVSMDENFHPLNELIPLVYIQDPKGNRIAQWQSFQLEGGLKQFSFPLSSEPFQGSYKVVVQKKSGGRTEHPFTVEEFVLPKFEVQVTVPKIITILEEEMNVSVCGLYTYGKPVPGHVTVSICRKYSDASDCHGEDSQAFCEKFSGQLNSHGCFYQQVKTKVFQLKRKEYEMKLHTEAQIQEEGTVVELTGRQSSEITRTITKLSFVKVDSHFRQGIPFFGQVRLVDGKGVPIPNKVIFIRGNEANYYSNATTDEHGLVQFSINTTNVMGTSLTVRVNYKDRSPCYGYQWVSEEHEEAHHTAYLVFSPSKSFVHLEPMSHELPCGHTQTVQAHYILNGGTLLGLKKLSFYYLIMAKGGIVRTGTHGLLVKQEDMKGHFSISIPVKSDIAPVARLLIYAVLPTGDVIGDSAKYDVENCLANKVDLSFSPSQSLPASHAHLRVTAAPQSVCALRAVDQSVLLMKPDAELSASSVYNLLPEKDLTGFPGPLNDQDDEDCINRHNVYINGITYTPVSSTNEKDMYSFLEDMGLKAFTNSKIRKPKMCPQLEQYEMHGPEGLRVGGARGLEGFYESDVMGRGHARLVHVEEPHTKLRKYFPETWIWDLVVVNSAGVAEVGVTVPDTITEWKAGAFCLSEDAGLGISSTASLRAFQPFFVELTMPYSVIRGEAFTLKATVLNYLPKCIRVSVQLEASPAFLAVPVEKEQAPHCICANGRQTVSWAVTPKSLGNVNFTVSAEALESQELCGTEVPSVPEHGRKDTVIKPLLVEPEGLEKETTFNSLLCPSGGEVSEELSLKLPPNVVEESARASVSVLGDILGSAMQNTQNLLQMPYGCGEQNMVLFAPNIYVLDYLNETQQLTPEIKSKAIGYLNTGYQRQLNYKHYDGSYSTFGERYGRNQGNTWLTAFVLKTFAQARAYIFIDEAHITQALIWLSQRQKDNGCFRSSGSLLNNAIKGGVEDEVTLSAYITIALLEIPLTVTHPVVRNALFCLESAWKTAQEGDHGSHVYTKALLAYAFALAGNQDKRKEVLKSLNEEAVKKDNSVHWERPQKPKAPVGHFYEPQAPSAEVEMTSYVLLAYLTAQPAPTSEDLTSATNIVKWITKQQNAQGGFSSTQDTVVALHALSKYGAATFTRTGKAAQVTIQSSGTFSSKFQVDNNNRLLLQQVSLPELPGEYSMKVTGEGCVYLQTSLKYNILPEKEEFPFALGVQTLPQTCDEPKAHTSFQISLSVSYTGSRSASNMAIVDVKMVSGFIPLKPTVKMLERSNHVSRTEVSSNHVLIYLDKVSNQTLSLFFTVLQDVPVRDLKPAIVKVYDYYETDEFAIAEYNAPCSKDLGNADYKDDDDKGASHHHHHH
Protease Inhibition (% of WT) [1]: 124 % of WT | Protease Inhibition (% of WT) [2]: 82 % of WT | Protease Inhibition (% of WT) [3]: 148 % of WT

B2: Variant A2M, bait region SEQ ID NO 95 (other)
chain: SVSGKPQYMVLVPSLLHTETTEKGCVLLSYLNETVTVSASLESVRGNRSLFTDLEAENDVLHCVAFAVPKSSSNEEVMFLTVQVKGPTQEFKKRTTVMVKNEDSLVFVQTDKSIYKPGQTVKFRVVSMDENFHPLNELIPLVYIQDPKGNRIAQWQSFQLEGGLKQFSFPLSSEPFQGSYKVVVQKKSGGRTEHPFTVEEFVLPKFEVQVTVPKIITILEEEMNVSVCGLYTYGKPVPGHVTVSICRKYSDASDCHGEDSQAFCEKFSGQLNSHGCFYQQVKTKVFQLKRKEYEMKLHTEAQIQEEGTVVELTGRQSSEITRTITKLSFVKVDSHFRQGIPFFGQVRLVDGKGVPIPNKVIFIRGNEANYYSNATTDEHGLVQFSINTTNVMGTSLTVRVNYKDRSPCYGYQWVSEEHEEAHHTAYLVFSPSKSFVHLEPMSHELPCGHTQTVQAHYILNGGTLLGLKKLSFYYLIMAKGGIVRTGTHGLLVKQEDMKGHFSISIPVKSDIAPVARLLIYAVLPTGDVIGDSAKYDVENCLANKVDLSFSPSQSLPASHAHLRVTAAPQSVCALRAVDQSVLLMKPDAELSASSVYNLLPEKDLTGFPGPLNDQDDEDCINRHNVYINGITYTPVSSTNEKDMYSFLEDMGLKAFTNSKIRKPKMCPQLEQYEMHGPEGLRVGTSEDLVVQFYESDVMGRGHARLVHVEEPHTKLLRKYFPETWIWDLVVVNSAGVAEVGVTVPDTITEWKAGAFCLSEDAGLGISSTASLRAFQPFFVELTMPYSVIRGEAFTLKATVLNYLPKCIRVSVQLEASPAFLAVPVEKEQAPHCICANGRQTVSWAVTPKSLGNVNFTVSAEALESQELCGTEVPSVPEHGRKDTVIKPLLVEPEGLEKETTFNSLLCPSGGEVSEELSLKLPPNVVEESARASVSVLGDILGSAMQNTQNLLQMPYGCGEQNMVLFAPNIYVLDYLNETQQLTPEIKSKAIGYLNTGYQRQLNYKHYDGSYSTFGERYGRNQGNTWLTAFVLKTFAQARAYIFIDEAHITQALIWLSQRQKDNGCFRSSGSLLNNAIKGGVEDEVTLSAYITIALLEIPLTVTHPVVRNALFCLESAWKTAQEGDHGSHVYTKALLAYAFALAGNQDKRKEVLKSLNEEAVKKDNSVHWERPQKPKAPVGHFYEPQAPSAEVEMTSYVLLAYLTAQPAPTSEDLTSATNIVKWITKQQNAQGGFSSTQDTVVALHALSKYGAATFTRTGKAAQVTIQSSGTFSSKFQVDNNNRLLLQQVSLPELPGEYSMKVTGEGCVYLQTSLKYNILPEKEEFPFALGVQTLPQTCDEPKAHTSFQISLSVSYTGSRSASNMAIVDVKMVSGFIPLKPTVKMLERSNHVSRTEVSSNHVLIYLDKVSNQTLSLFFTVLQDVPVRDLKPAIVKVYDYYETDEFAIAEYNAPCSKDLGNADYKDDDDKGASHHHHHH
Protease Inhibition (% of WT) [1]: 153 % of WT | Protease Inhibition (% of WT) [2]: 272 % of WT | Protease Inhibition (% of WT) [3]: 79 % of WT

B3: Variant A2M, bait region SEQ ID NO 97 (other)
chain: SVSGKPQYMVLVPSLLHTETTEKGCVLLSYLNETVTVSASLESVRGNRSLFTDLEAENDVLHCVAFAVPKSSSNEEVMFLTVQVKGPTQEFKKRTTVMVKNEDSLVFVQTDKSIYKPGQTVKFRVVSMDENFHPLNELIPLVYIQDPKGNRIAQWQSFQLEGGLKQFSFPLSSEPFQGSYKVVVQKKSGGRTEHPFTVEEFVLPKFEVQVTVPKIITILEEEMNVSVCGLYTYGKPVPGHVTVSICRKYSDASDCHGEDSQAFCEKFSGQLNSHGCFYQQVKTKVFQLKRKEYEMKLHTEAQIQEEGTVVELTGRQSSEITRTITKLSFVKVDSHFRQGIPFFGQVRLVDGKGVPIPNKVIFIRGNEANYYSNATTDEHGLVQFSINTTNVMGTSLTVRVNYKDRSPCYGYQWVSEEHEEAHHTAYLVFSPSKSFVHLEPMSHELPCGHTQTVQAHYILNGGTLLGLKKLSFYYLIMAKGGIVRTGTHGLLVKQEDMKGHFSISIPVKSDIAPVARLLIYAVLPTGDVIGDSAKYDVENCLANKVDLSFSPSQSLPASHAHLRVTAAPQSVCALRAVDQSVLLMKPDAELSASSVYNLLPEKDLTGFPGPLNDQDDEDCINRHNVYINGITYTPVSSTNEKDMYSFLEDMGLKAFTNSKIRKPKMCPQLEQYEMHGPEGLRVGGEEGVEEGFYESDVMGRGHARLVHVEEPHTKLLRKYFPETWIWDLVVVNSAGVAEVGVTVPDTITEWKAGAFCLSEDAGLGISSTASLRAFQPFFVELTMPYSVIRGEAFTLKATVLNYLPKCIRVSVQLEASPAFLAVPVEKEQAPHCICANGRQTVSWAVTPKSLGNVNFTVSAEALESQELCGTEVPSVPEHGRKDTVIKPLLVEPEGLEKETTFNSLLCPSGGEVSEELSLKLPPNVVEESARASVSVLGDILGSAMQNTQNLLQMPYGCGEQNMVLFAPNIYVLDYLNETQQLTPEIKSKAIGYLNTGYQRQLNYKHYDGSYSTFGERYGRNQGNTWLTAFVLKTFAQARAYIFIDEAHITQALIWLSQRQKDNGCFRSSGSLLNNAIKGGVEDEVTLSAYITIALLEIPLTVTHPVVRNALFCLESAWKTAQEGDHGSHVYTKALLAYAFALAGNQDKRKEVLKSLNEEAVKKDNSVHWERPQKPKAPVGHFYEPQAPSAEVEMTSYVLLAYLTAQPAPTSEDLTSATNIVKWITKQQNAQGGFSSTQDTVVALHALSKYGAATFTRTGKAAQVTIQSSGTFSSKFQVDNNNRLLLQQVSLPELPGEYSMKVTGEGCVYLQTSLKYNILPEKEEFPFALGVQTLPQTCDEPKAHTSFQISLSVSYTGSRSASNMAIVDVKMVSGFIPLKPTVKMLERSNHVSRTEVSSNHVLIYLDKVSNQTLSLFFTVLQDVPVRDLKPAIVKVYDYYETDEFAIAEYNAPCSKDLGNADYKDDDDKGASHHHHHH
Protease Inhibition (% of WT) [1]: 131 % of WT | Protease Inhibition (% of WT) [2]: 128 % of WT | Protease Inhibition (% of WT) [3]: 116 % of WT

Source: patent publication US20230250154A1 (CYTONICS, published 2023)
